# Test results: patent publication US20250011363A1, “OPTIMIZED SHORTENED PEPTIDE THAT BINDS TO ACETYLCHOLINE RECEPTOR, AND USE THEREOF” (SKINMED CO., LTD., priority 2021, published 2025)
# B1: 5mer-311 (peptide)
# peptide: RSYSR
# B2: 6mer-2-81 (peptide)
# peptide: RRVSRR
# B3: 6mer-2-70 (peptide)
# peptide: KRLLRK
# B4: 6mer-1-1198 (peptide)
# peptide: RRATER
# B5: 6mer-2-78 (peptide)
# peptide: KRYLKR
# B6: 6mer-2-76 (peptide)
# peptide: RRQSRK
# B7: 6mer-2-71 (peptide)
# peptide: KQVYKR
# B8: 6mer-2-74 (peptide)
# peptide: RWIYKR
# B9: 6mer-2-69 (peptide)
# peptide: KWFLRK
# B10: 6mer-2-72 (peptide)
# peptide: KRIQKK
# B11: 6mer-2-73 (peptide)
# peptide: RLYTKR
# B12: 6mer-2-79 (peptide)
# peptide: RQLSKR
# B13: 6mer-1-1200 (peptide)
# peptide: RKACEK
# B14: 6mer-2-80 (peptide)
# peptide: RRQYKR
# B15: 6mer-2-75 (peptide)
# peptide: KLYTRK
# B16: 6mer-2-77 (peptide)
# peptide: KQQTRR
# B17: 6mer-1-1199 (peptide)
# peptide: KKTNKR
# B18: 6mer-1-210 (peptide)
# peptide: RRGVRR
# B19: 6mer-2-136 (peptide)
# peptide: RWRYKR
# B20: 5mer-73 (peptide)
# peptide: RRQRR
# B21: NRRGVRR (peptide)
# peptide: NRRGVRR
# B22: RRGVRRN (peptide)
# peptide: RRGVRRN
# B23: RRGVRRK (peptide)
# peptide: RRGVRRK
# B24: MRRGVRR (peptide)
# peptide: MRRGVRR
# B25: DRRGVRR (peptide)
# peptide: DRRGVRR
# B26: ERRGVRR (peptide)
# peptide: ERRGVRR
# B27: 5mer-ND (peptide)
# peptide: KSLLR
# B28: RRGVRRQ (peptide)
# peptide: RRGVRRQ
# B29: YRRGVRR (peptide)
# peptide: YRRGVRR
# B30: RRGVRRM (peptide)
# peptide: RRGVRRM
# B31: RRGVRRF (peptide)
# peptide: RRGVRRF
# B32: QRRGVRR (peptide)
# peptide: QRRGVRR
# B33: RRGVRRT (peptide)
# peptide: RRGVRRT
# B34: RRGVRRE (peptide)
# peptide: RRGVRRE
# B35: Spep 6mer (peptide)
# peptide: RKSLLR
# B36: HRRGVRR (peptide)
# peptide: HRRGVRR
# B37: WRRGVRR (peptide)
# peptide: WRRGVRR
# B38: FRRGVRR (peptide)
# peptide: FRRGVRR
# B39: RRGVRRD (peptide)
# peptide: RRGVRRD
# B40: KRRGVRR (peptide)
# peptide: KRRGVRR
# B41: RRGVRRH (peptide)
# peptide: RRGVRRH
# B42: SRRGVRR (peptide)
# peptide: SRRGVRR
# B43: RRRGVRR (peptide)
# peptide: RRRGVRR
# B44: TRRGVRR (peptide)
# peptide: TRRGVRR
# B45: RRGVRRS (peptide)
# peptide: RRGVRRS
# B46: RRGVRRY (peptide)
# peptide: RRGVRRY
# B47: RRGVRRI (peptide)
# peptide: RRGVRRI
# B48: IRRGVRR (peptide)
# peptide: IRRGVRR
# B49: RRGVRRR (peptide)
# peptide: RRGVRRR
# B50: RRGVRRW (peptide)
# peptide: RRGVRRW
# Target: acetylcholine receptor
# Experiment: SPR, AchR on chip, peptide 10 uM
row,Binder,Binding affinity (RU)
1,B1,167 RU

# Target: acetylcholine receptor
# Experiment: SPR, peptide at 10 uM over immobilized acetylcholine receptor
row,Binder,Binding affinity (RU)
1,B2,121 RU
2,B3,126 RU
3,B4,28 RU
4,B5,135 RU
5,B6,142 RU
6,B7,141 RU
7,B8,136 RU
8,B9,139 RU
9,B10,144 RU
10,B11,139 RU
11,B12,135 RU
12,B13,21 RU
13,B14,148 RU
14,B15,133 RU
15,B16,123 RU
16,B17,39 RU

# Target: acetylcholine receptor
# Experiment: SPR, AchR immobilised on chip, peptide 10 uM
row,Binder,Binding affinity (RU)
1,B18,184 RU

# Target: acetylcholine receptor
# Experiment: SPR, receptor immobilized, peptide 10 uM
row,Binder,Binding affinity
1,B19,194 RU

# Target: acetylcholine receptor
# Experiment: SPR, peptide at 10 µM on acetylcholine receptor
row,Binder,Binding affinity (RU)
1,B20,179 RU

# Target: acetylcholine receptor
# Experiment: SPR, AchR immobilized on chip
Binder,Binding affinity (relative to RRGVRR) (value relative to the RRGVRR sequence),Binding affinity (RU)
B21,109,
B22,105,
B23,171,
B18,,184 RU
B24,124,
B25,159,
B26,43,
B27,,23 RU
B28,105,
B29,145,
B30,127,
B31,137,
B32,101,
B19,,194 RU
B33,113,
B34,33,
B20,,179 RU

Binder,Binding affinity (relative to RRGVRR) (value relative to the RRGVRR sequence),Binding affinity (RU)
B1,,167 RU
B35,,35 RU
B36,160,
B37,134,
B38,139,
B39,61,
B40,169,
B41,154,
B42,117,
B43,185,
B44,105,
B45,118,
B46,101,
B47,138,
B48,126,
B49,188,
B50,134,
